From IntAct's records for PubMed 17012248

B1: Sialic acid-binding Ig-like lectin 14 (Homo sapiens), Q08ET2 (parent)
chain: MLPLLLLPLLWGGSLQEKPVYELQVQKSVTVQEGLCVLVPCSFSYPWRSWYSSPPLYVYWFRDGEIPYYAEVVATNNPDRRVKPETQGRFRLLGDVQKKNCSLSIGDARMEDTGSYFFRVERGRDVKYSYQQNKLNLEVTALIEKPDIHFLEPLESGRPTRLSCSLPGSCEAGPPLTFSWTGNALSPLDPETTRSSELTLTPRPEDHGTNLTCQVKRQGAQVTTERTVQLNVSYAPQNLAISIFFRNGTGTALRILSNGMSVPIQEGQSLFLACTVDSNPPASLSWFREGKALNPSQTSMSGTLELPNIGAREGGEFTCRVQHPLGSQHLSFILSVQRSSSSCICVTEKQQGSWPLVLTLIRGALMGAGFLLTYGLTWIYYTRCGGPQQSRAERPG

Variants of: B1
Conditions: with tyobp_human TYROBP

| Variant | effect of a mutation on the interaction |
| --- | --- |
| R362A | decreasing interaction |
